Measured values as given in PMC7020397 (Toxins, 2020).
Ends that are not written are not given here.

What was measured:
[1] = target: muscle-type Torpedo nAChR (Torpedo); test: competition with α-bungarotoxin
human neuronal α7 nAChR = human neuronal α7 nAChR (human, UniProt P36544 23-502); test: competition with α-bungarotoxin
human neuronal α7 nAChR, sequence (P36544 23-502): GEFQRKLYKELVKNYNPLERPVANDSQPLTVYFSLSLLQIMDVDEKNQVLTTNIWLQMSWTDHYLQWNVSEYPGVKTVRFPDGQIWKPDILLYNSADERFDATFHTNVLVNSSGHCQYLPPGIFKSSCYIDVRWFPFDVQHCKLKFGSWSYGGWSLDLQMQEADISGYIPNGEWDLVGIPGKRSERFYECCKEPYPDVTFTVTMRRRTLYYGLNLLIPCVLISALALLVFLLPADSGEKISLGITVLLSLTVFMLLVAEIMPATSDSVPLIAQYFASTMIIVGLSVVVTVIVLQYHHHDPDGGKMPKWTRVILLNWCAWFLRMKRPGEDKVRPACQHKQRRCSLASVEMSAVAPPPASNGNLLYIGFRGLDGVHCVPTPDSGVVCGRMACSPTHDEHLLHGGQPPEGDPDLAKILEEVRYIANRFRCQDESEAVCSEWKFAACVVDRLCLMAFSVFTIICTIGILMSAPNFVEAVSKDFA

muscle-type Torpedo nAChR (Torpedo), sequence (P02710 25-461 limits assumed, chain 1 of 4): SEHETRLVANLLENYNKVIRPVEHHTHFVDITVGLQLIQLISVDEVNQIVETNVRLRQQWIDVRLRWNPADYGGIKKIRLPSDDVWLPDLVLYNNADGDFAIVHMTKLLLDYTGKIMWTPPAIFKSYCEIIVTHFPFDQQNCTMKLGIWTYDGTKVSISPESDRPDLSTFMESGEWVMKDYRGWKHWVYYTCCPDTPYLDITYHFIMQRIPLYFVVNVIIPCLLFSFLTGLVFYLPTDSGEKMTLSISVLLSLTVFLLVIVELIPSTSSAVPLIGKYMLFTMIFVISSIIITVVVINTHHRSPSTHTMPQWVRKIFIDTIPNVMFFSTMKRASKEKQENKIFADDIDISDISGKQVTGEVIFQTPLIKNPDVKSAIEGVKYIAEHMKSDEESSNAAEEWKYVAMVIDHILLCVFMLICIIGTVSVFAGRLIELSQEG
muscle-type Torpedo nAChR (Torpedo), sequence (P02712 25-493 limits assumed, chain 2 of 4, further chain): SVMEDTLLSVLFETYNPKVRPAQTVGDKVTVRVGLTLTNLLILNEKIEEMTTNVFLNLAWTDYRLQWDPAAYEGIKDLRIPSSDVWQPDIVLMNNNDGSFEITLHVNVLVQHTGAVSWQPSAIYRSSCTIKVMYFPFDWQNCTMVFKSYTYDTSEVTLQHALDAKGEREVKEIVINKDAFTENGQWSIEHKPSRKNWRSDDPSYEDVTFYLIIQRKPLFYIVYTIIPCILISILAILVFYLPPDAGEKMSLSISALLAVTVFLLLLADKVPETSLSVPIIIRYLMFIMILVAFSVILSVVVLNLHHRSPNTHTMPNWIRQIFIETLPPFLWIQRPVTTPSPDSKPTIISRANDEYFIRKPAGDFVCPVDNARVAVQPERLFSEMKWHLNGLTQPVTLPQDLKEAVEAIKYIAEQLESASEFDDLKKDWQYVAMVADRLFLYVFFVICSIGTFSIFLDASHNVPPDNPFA
muscle-type Torpedo nAChR (Torpedo), sequence (P02714 18-506 limits assumed, chain 3 of 4, further chain): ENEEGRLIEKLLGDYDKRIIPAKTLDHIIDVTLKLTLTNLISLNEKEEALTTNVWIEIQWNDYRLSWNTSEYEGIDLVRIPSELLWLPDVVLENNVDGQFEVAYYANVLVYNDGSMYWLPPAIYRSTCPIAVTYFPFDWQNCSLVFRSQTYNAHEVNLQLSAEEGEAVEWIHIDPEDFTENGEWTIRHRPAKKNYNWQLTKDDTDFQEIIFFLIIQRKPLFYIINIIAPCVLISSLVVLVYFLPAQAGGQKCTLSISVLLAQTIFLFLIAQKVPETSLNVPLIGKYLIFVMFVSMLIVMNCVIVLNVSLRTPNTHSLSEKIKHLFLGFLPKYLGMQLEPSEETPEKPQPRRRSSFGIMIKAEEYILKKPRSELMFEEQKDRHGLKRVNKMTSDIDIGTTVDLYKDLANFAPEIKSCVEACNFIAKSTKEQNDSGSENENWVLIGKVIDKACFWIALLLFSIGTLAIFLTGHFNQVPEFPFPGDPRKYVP
muscle-type Torpedo nAChR (Torpedo), sequence (P02718 22-522 limits assumed, chain 4 of 4, further chain): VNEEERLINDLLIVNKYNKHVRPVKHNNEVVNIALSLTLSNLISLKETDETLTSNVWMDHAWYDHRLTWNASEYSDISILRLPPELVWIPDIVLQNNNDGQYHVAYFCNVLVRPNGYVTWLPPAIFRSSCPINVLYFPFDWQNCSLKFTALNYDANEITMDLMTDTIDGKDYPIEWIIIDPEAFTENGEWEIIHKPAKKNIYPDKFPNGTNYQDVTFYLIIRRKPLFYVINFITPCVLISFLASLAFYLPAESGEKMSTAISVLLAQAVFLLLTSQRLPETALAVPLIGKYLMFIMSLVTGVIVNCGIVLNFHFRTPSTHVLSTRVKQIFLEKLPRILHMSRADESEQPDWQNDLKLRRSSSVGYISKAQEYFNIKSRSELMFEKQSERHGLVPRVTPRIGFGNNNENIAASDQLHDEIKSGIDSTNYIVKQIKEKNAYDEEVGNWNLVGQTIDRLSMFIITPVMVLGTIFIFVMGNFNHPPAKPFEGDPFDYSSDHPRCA
OSK-1, sequence (P55896 whole entry): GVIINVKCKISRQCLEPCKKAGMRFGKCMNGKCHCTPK

Row | Molecule | IC50 [1] | IC50 (human neuronal α7 nAChR)
1 | OSK-1 (from UniProt P55896 1-38) (peptide) | 500 nM | –
2 | spinoxin (from UniProt P84094 1-34) (peptide) | 500 nM | –
3 | DNWWPKPPHQGPRPPRPRPKP (not fully specified, source: synthetic peptide) [azemiopsin] | 180 nM | 22000 nM
